Measurements reported in US20250333521A1 (SYNTHEKINE, published 2025).

T1: human IL10Rb ECD antigen (human, UniProt Q08334 20-220)
T1 construct: Coat of the panning and PE-ELISA plates; also called hIL10Rb extracellular domain; IL10Rb (plate coat)
T1 sequence: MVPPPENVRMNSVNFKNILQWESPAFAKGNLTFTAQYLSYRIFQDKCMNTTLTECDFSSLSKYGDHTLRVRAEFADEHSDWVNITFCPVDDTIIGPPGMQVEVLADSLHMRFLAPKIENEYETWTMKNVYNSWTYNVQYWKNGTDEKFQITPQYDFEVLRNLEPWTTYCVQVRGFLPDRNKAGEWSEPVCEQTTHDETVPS


Biological target: T1, human IL10Rb ECD antigen
Experiment: periplasmic extract ELISA of phage clones on antigen-coated plate
Method: Upon completion of the biopanning of Example 3, three 96-well plates of individual phage clones were isolated in order to perform periplasmic extract ELISA (PE-ELISA) on IL10Rb coated plates to identify positive VHH binders that selectively bound IL10Rb. A 96-well plate was coated with IL10Rb and PBS under the same conditions. Next, wells were blocked at 37° C. for 1 h. Then, 100 μl of extracted antibodies was added to each well and incubated for 1 h. Subsequently, 100 μl of anti-tag polyclonal antibody conjugated to HRP was added to each well and incubated at 37° C. for 1 h. Plates were developed with TMB substrate. The reaction was stopped by the addition of H2SO4. Absorbance at 450 nm was read on a microtiter plate reader. Antibodies with absorbance of the antigen-coated well at least threefold greater than PBS-coated control are VHHs that specifically bind to IL10Rb. Positive clones were sequenced, and sequences analyzed to identify unique clonotypes

| Binder | binding result |
| --- | --- |
| hIL10Rb_VHH-4 (VHH, Periplasmic extract of the phage clone (pMECS, HA/His) as tested in PE-ELISA; not shown: HA/His tag of the pMECS phagemid) VHH: QVQLQESGGGSIQAGGSLRLSCAASRYLYSIDYMAWFRQSPGKEREPVAVIYTASGATFYPDSVKGRFTISQDNAKMTVYLQMNSLKSEDTAMYYCAAVRKTDSYLFDAQSFTYWGQGTQVTVSS | binds |
| hIL10Rb_VHH-6 (VHH, Periplasmic extract of the phage clone (pMECS, HA/His) as tested in PE-ELISA; not shown: HA/His tag of the pMECS phagemid) VHH: QVQLQESGGGSIQAGGSLTLSCAASRDLYSTNYVAWFRQSPGKEREAVAVIYTASGATLYSDSVKGRFTISQDNAKMTVYLQMNSLKSEDTAMYYCAAVRKTGHYLFDAQSFTYWGQGTQVTVSS | binds |
